Measured values reported in US20030023032A1.

Target: sigma 54 (sigma^54) transcription factor from Vibrio harveyi, product of the rpoN gene (Vibrio harveyi)
Assay: cell-based or functional assay

LuxO D47E ("locked" form mimicking activated phospho-LuxO), Vibrio harveyi (from UniProt P0C5S5 1-453)
% W.T. Lux (bioluminescence per cell at high cell density); strain JAF548, luxO D47E, wild type rpoN present (% of wild type): 0.002 | % W.T. Lux; strain BNL244, luxO D47E, rpoN::Cm^r (sigma^54 absent) (% of wild type): 77 | % W.T. Lux; strain BNL244, luxO D47E, rpoN::Cm^r, with Plac-rpoN in trans (sigma^54 restored) (% of wild type): 1.4 | Siderophore units (chromazurol S assay); strain JAF548, luxO D47E, wild type rpoN present (siderophore units): 50 | Siderophore units; strain BNL244, luxO D47E, rpoN::Cm^r (sigma^54 absent) (siderophore units): 4 | Siderophore units; strain BNL244, luxO D47E, rpoN::Cm^r, with Plac-rpoN in trans (sigma^54 restored) (siderophore units): 25

phospho-LuxO (wild type LuxO, constitutively phosphorylated in luxN L166R strains), Vibrio harveyi (from UniProt P0C5S5 1-453)
% W.T. Lux; strain BNL248, luxN L166R, rpoN::Cm^r (sigma^54 absent) (% of wild type): 55 | % W.T. Lux; strain BNL248, luxN L166R, rpoN::Cm^r, with Plac-rpoN in trans (sigma^54 restored) (% of wild type): 1.1 | % W.T. Lux; strain JAF549, luxN L166R, wild type rpoN present (% of wild type): 0.004
